Measurements as given in US11814440B2, “Glypican 2 as a cancer marker and therapeutic target” (THE CHILDREN'S HOSPITAL OF PHILADELPHIA, priority 2015, dated 2023).

T1: GPC2 (Homo sapiens, UniProt Q8N158)
T1 sequence (Q8N158 24-554): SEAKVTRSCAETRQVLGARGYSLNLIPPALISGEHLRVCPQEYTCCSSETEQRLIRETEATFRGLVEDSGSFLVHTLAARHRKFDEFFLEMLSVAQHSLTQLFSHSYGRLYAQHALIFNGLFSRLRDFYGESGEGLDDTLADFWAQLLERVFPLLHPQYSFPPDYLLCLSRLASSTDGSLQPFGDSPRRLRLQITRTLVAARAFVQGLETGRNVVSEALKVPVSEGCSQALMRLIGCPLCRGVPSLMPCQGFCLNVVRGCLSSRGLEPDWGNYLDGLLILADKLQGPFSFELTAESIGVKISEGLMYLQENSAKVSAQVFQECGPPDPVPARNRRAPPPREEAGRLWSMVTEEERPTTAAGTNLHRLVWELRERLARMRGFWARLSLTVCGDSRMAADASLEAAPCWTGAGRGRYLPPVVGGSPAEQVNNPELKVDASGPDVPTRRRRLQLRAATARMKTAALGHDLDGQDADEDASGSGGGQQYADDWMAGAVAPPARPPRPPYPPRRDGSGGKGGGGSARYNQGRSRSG

T2: cancer cell-associated GPC2 (Homo sapiens, UniProt Q8N158)
T2 sequence (Q8N158 24-554): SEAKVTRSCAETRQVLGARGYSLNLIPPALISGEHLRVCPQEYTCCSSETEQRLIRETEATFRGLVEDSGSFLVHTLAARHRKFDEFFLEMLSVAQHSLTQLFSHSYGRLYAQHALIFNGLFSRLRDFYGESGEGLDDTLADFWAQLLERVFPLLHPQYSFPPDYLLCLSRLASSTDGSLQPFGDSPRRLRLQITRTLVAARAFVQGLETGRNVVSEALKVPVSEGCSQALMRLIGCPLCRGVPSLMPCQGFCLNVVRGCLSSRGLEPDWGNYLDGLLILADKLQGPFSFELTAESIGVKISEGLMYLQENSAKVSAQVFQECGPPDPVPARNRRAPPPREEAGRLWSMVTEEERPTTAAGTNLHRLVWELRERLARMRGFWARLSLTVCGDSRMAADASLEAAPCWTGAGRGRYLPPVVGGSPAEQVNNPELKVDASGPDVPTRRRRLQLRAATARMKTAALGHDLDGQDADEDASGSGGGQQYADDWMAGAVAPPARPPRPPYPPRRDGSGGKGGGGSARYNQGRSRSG


What was measured:
GPC2 = target: T1, GPC2; assay: In vitro characterization of GPC2 antibodies; settings: for use in CAR-T, ADC and bispecific antibody development
[1] = target: T2, cancer cell-associated GPC2; assay: Targeting of GPC2 by phage display derived human antibodies; format: binding; settings: isolated from phage display antibody library, affinity matured

Molecule | therapeutic activity in in vitro characterization (GPC2) | specific targeting of cancer cell-associated GPC2 [1]
m201 (antibody, V domains shown) VH: EVQLVETGGGVVKPGGSLRLSCAASGFTFSDYYMSWIRQAPGKGLEWVSYISSSGSTIYYADSVKGRFTISRDNSKNTLYLQMNSLRAEDTAVYYCARESGYDYVFDYWGQGTLVAVSS VL: DIQMTQSPSTLSAFVGDRVTITCRASQSISSWLAWYQQKPGKAPKLLIYAASTLQSGVPSRFSGSGSGTEFTLTISSLQPEDFATYYCQQLNSYPITFGQGTRLEIKR | promising therapeutic activity | –
m202 (antibody, V domains shown) VH: QVQLVQSGGGLIQPGGSLRLSCAASGFTVSSNYMSWVRQAPGKGLEWVSVIYSGGSTYYADSVKGRFTISRDNSKNTLYLQMNSLRAEDTAVYYCARDSNAFDIWGQGTMVTVSS VL: EIVLTQSPLSLPVTPGEPASISCRSSQSLLYSNGYNYLDWYLQKPGKSPQVLIYLGSNRASGVPDRFSGSGSGTDFTLKISRVEAEDVGVYYCMQALQTPITFGQGTRLEIKR | promising therapeutic activity | specifically targeting cancer cell-associated GPC2
m203 (antibody, V domains shown) VH: EVQLVQSGGGLVQPGGSLRLSCAASGFTFSSYAMSWVRQAPGKGLEWVSAISGSGGSTYYADSVKGRFTISRDNSKNTLSLQMDSLRPEDTAVYYCAKSRDSGNYLDAFDFWGQGTMVTVSS VL: DIQLTQSPSTLSASVGDRVTITCRASQSISSWLAWYQQKAGKAPRLLIYDASTLESGVPSRFSGTGSGTYFTLTISSLQPEDFATYYCQQFNSFPLTFGGGTKVEIKR | promising therapeutic activity | specifically targeting cancer cell-associated GPC2
